According to patent US6429305:

Target: growth hormone receptor on ZFL cells (zebrafish liver cell line) (zebrafish)
Assay: cell-based or functional assay

increase in cell proliferation relative to no growth hormone added (MTS-formazan conversion assay, ZFL cells): 13.7%
Substance: human growth hormone (from UniProt P01241 27-217) (ligand)
